Results: the supplement of paper PMC9112550, “Optimization of the antimicrobial peptide Bac7 by deep mutational scanning” (BMC Biology, 2022)

Test system: Escherichia coli TOP10
Test: shrunken log2 fold change of peptide-encoding DNA abundance (4.5 h post-induction vs induction); higher = less antimicrobial activity (less host growth inhibition)
Conditions: time post-induction: 4.5 h; library: site-saturation at positions 5, 18, 19, 20
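Further: peptides expressed intracellularly from a pBAD plasmid library in pooled LB shake-flask culture, induced with 0.3% L-arabinose, DNA abundance read by NGS, three biological replicates, DESeq2 with apeglm shrinkage.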

Row | Sequence | shrunken log2 fold change
1 | RRIRPRPPRLPRPRPRPYGKPRP | -0.307
2 | RRIRDRPPRLPRPRPRPRNSPRP | -0.394
3 | RRIRDRPPRLPRPRPRPAKGPRP | -0.0222
4 | RRIRDRPPRLPRPRPRPIFTPRP | -0.0502
5 | RRIRSRPPRLPRPRPRPQDWPRP | -0.0642
6 | RRIRHRPPRLPRPRPRPCPSPRP | 0.0144
7 | RRIRNRPPRLPRPRPRPDCFPRP | -0.306
8 | RRIRLRPPRLPRPRPRPNCRPRP | 0.00739
9 | RRIRIRPPRLPRPRPRPATPPRP | 0.0979
10 | RRIRQRPPRLPRPRPRPFAFPRP | 0.087
11 | RRIRWRPPRLPRPRPRPRDLPRP | 0.276
12 | RRIRQRPPRLPRPRPRPWKQPRP | -0.08
13 | RRIRNRPPRLPRPRPRPQFNPRP | -0.0424
14 | RRIRYRPPRLPRPRPRPDHLPRP | -0.00968
15 | RRIRYRPPRLPRPRPRPGSPPRP | -0.0883
16 | RRIRSRPPRLPRPRPRPNLKPRP | 0.087
17 | RRIRRRPPRLPRPRPRPWQNPRP | -0.111
18 | RRIRKRPPRLPRPRPRPEGLPRP | 1.05
19 | RRIRRRPPRLPRPRPRPPFKPRP | 0.321
20 | RRIRKRPPRLPRPRPRPFCAPRP | 0.588
21 | RRIRPRPPRLPRPRPRPLDEPRP | 0.102
22 | RRIRRRPPRLPRPRPRPKIHPRP | 0.02
23 | RRIRDRPPRLPRPRPRPCIYPRP | -0.0518
24 | RRIRNRPPRLPRPRPRPPVQPRP | 0.0479
25 | RRIRRRPPRLPRPRPRPFLIPRP | 1.61

Row | Sequence | shrunken log2 fold change
26 | RRIRRRPPRLPRPRPRPTMGPRP | 0.0489
27 | RRIRGRPPRLPRPRPRPGHNPRP | 0.0636
28 | RRIRERPPRLPRPRPRPIAPPRP | 0.235
29 | RRIRWRPPRLPRPRPRPWWCPRP | -0.0237
30 | RRIRIRPPRLPRPRPRPGNLPRP | -0.175
31 | RRIRSRPPRLPRPRPRPPMDPRP | -0.0324
32 | RRIRKRPPRLPRPRPRPVLEPRP | 0.475
33 | RRIRSRPPRLPRPRPRPRGGPRP | 0.84
34 | RRIRDRPPRLPRPRPRPIAFPRP | 0.15
35 | RRIRGRPPRLPRPRPRPPVCPRP | 0.213
36 | RRIRMRPPRLPRPRPRPRSPPRP | 0.921
37 | RRIRWRPPRLPRPRPRPGPRPRP | 0.514
38 | RRIRGRPPRLPRPRPRPIPQPRP | 0.358
39 | RRIRNRPPRLPRPRPRPRPFPRP | 0.472
40 | RRIRGRPPRLPRPRPRPTSHPRP | 0.64
41 | RRIRKRPPRLPRPRPRPMMMPRP | 0.619
42 | RRIRWRPPRLPRPRPRPISHPRP | -0.24
43 | RRIRARPPRLPRPRPRPQPIPRP | 0.16
44 | RRIRPRPPRLPRPRPRPNHIPRP | -0.856
45 | RRIRFRPPRLPRPRPRPGQIPRP | -0.133
46 | RRIRYRPPRLPRPRPRPENPPRP | -0.382
47 | RRIRRRPPRLPRPRPRPEGGPRP | 0.103
48 | RRIRSRPPRLPRPRPRPCAFPRP | -0.236
49 | RRIRQRPPRLPRPRPRPWMSPRP | -0.0167
50 | RRIRIRPPRLPRPRPRPQSSPRP | 0.00983

Row | Sequence | shrunken log2 fold change
51 | RRIRTRPPRLPRPRPRPVNPPRP | -0.0713
52 | RRIRRRPPRLPRPRPRPQISPRP | -0.0603
53 | RRIRQRPPRLPRPRPRPPPGPRP | 0.751
54 | RRIRWRPPRLPRPRPRPTECPRP | 0.0746
55 | RRIRERPPRLPRPRPRPRGLPRP | 0.159
56 | RRIRIRPPRLPRPRPRPGTFPRP | -0.0863
57 | RRIRYRPPRLPRPRPRPWRCPRP | 2.33
58 | RRIRMRPPRLPRPRPRPCRGPRP | 0.0309
59 | RRIRRRPPRLPRPRPRPDSFPRP | -0.0228
60 | RRIRARPPRLPRPRPRPVEWPRP | 0.544
61 | RRIRDRPPRLPRPRPRPNRAPRP | 0.563
62 | RRIRTRPPRLPRPRPRPENWPRP | 0.157
63 | RRIRERPPRLPRPRPRPGCAPRP | 0.335
64 | RRIRFRPPRLPRPRPRPHYAPRP | -0.285
65 | RRIRERPPRLPRPRPRPGINPRP | -0.249
66 | RRIRHRPPRLPRPRPRPAEVPRP | -0.0107
67 | RRIRLRPPRLPRPRPRPSDCPRP | -0.336
68 | RRIRYRPPRLPRPRPRPNNHPRP | -1.1
69 | RRIRYRPPRLPRPRPRPSGHPRP | -0.265
70 | RRIRVRPPRLPRPRPRPCSQPRP | -0.0327
71 | RRIRFRPPRLPRPRPRPLSFPRP | 0.675
72 | RRIRERPPRLPRPRPRPALAPRP | 0.432
73 | RRIRQRPPRLPRPRPRPEPLPRP | 0.287
74 | RRIRKRPPRLPRPRPRPVFAPRP | 2.02
75 | RRIRNRPPRLPRPRPRPNQVPRP | -0.255

Row | Sequence | shrunken log2 fold change
76 | RRIRPRPPRLPRPRPRPHDLPRP | 0.0288
77 | RRIRARPPRLPRPRPRPWTDPRP | -0.0701
78 | RRIRTRPPRLPRPRPRPIWHPRP | 0.12
79 | RRIRARPPRLPRPRPRPEFPPRP | 0.962
80 | RRIRPRPPRLPRPRPRPRLEPRP | 0.197
81 | RRIRIRPPRLPRPRPRPVSDPRP | -0.619
82 | RRIRFRPPRLPRPRPRPGSDPRP | -0.111
83 | RRIRWRPPRLPRPRPRPKNWPRP | 0.188
84 | RRIRGRPPRLPRPRPRPTTHPRP | 0.875
85 | RRIRQRPPRLPRPRPRPGRSPRP | 0.105
86 | RRIRQRPPRLPRPRPRPLIYPRP | -0.457
87 | RRIRIRPPRLPRPRPRPFENPRP | -0.00783
88 | RRIRHRPPRLPRPRPRPCPVPRP | -0.0628
89 | RRIRYRPPRLPRPRPRPIAKPRP | 0.0673
90 | RRIRNRPPRLPRPRPRPQNLPRP | -0.266
91 | RRIRTRPPRLPRPRPRPIDRPRP | -0.148
92 | RRIRERPPRLPRPRPRPSVEPRP | -0.326
93 | RRIRHRPPRLPRPRPRPHYFPRP | 0.00508
94 | RRIRWRPPRLPRPRPRPKSTPRP | 0.126
95 | RRIRSRPPRLPRPRPRPQIVPRP | -0.32
96 | RRIRMRPPRLPRPRPRPHRGPRP | 0.0388
97 | RRIRMRPPRLPRPRPRPHHGPRP | -0.762
98 | RRIRKRPPRLPRPRPRPSVCPRP | -0.0364
99 | RRIRSRPPRLPRPRPRPHMQPRP | -0.264
100 | RRIRGRPPRLPRPRPRPDIWPRP | 0.598

Row | Sequence | shrunken log2 fold change
101 | RRIRRRPPRLPRPRPRPPIHPRP | -0.11
102 | RRIRSRPPRLPRPRPRPFREPRP | 0.0536
103 | RRIRRRPPRLPRPRPRPMMDPRP | -0.00156
104 | RRIRFRPPRLPRPRPRPYNRPRP | -0.262
105 | RRIRYRPPRLPRPRPRPSSGPRP | 0.00646
106 | RRIRKRPPRLPRPRPRPNNLPRP | -0.218
107 | RRIRARPPRLPRPRPRPSEHPRP | -0.301
108 | RRIRKRPPRLPRPRPRPNMEPRP | -0.0503
109 | RRIRDRPPRLPRPRPRPTLTPRP | 0.717
110 | RRIRQRPPRLPRPRPRPIYMPRP | -0.113
111 | RRIRTRPPRLPRPRPRPDADPRP | 0.0357
112 | RRIRHRPPRLPRPRPRPCVEPRP | 0.197
113 | RRIRFRPPRLPRPRPRPWIMPRP | -0.206
114 | RRIRKRPPRLPRPRPRPWKVPRP | -0.000777
115 | RRIRLRPPRLPRPRPRPNGDPRP | -0.00192
116 | RRIRSRPPRLPRPRPRPHSDPRP | -0.0834
117 | RRIRARPPRLPRPRPRPGDNPRP | 0.133
118 | RRIRERPPRLPRPRPRPSFFPRP | 0.221
119 | RRIRHRPPRLPRPRPRPHDYPRP | -0.0577
120 | RRIRYRPPRLPRPRPRPINCPRP | -0.122
121 | RRIRYRPPRLPRPRPRPEPMPRP | -0.0988
122 | RRIRLRPPRLPRPRPRPKYMPRP | -0.544
123 | RRIRARPPRLPRPRPRPDTIPRP | 0.103
124 | RRIRQRPPRLPRPRPRPVFYPRP | -0.147
125 | RRIRMRPPRLPRPRPRPCSVPRP | -0.0402

Row | Sequence | shrunken log2 fold change
126 | RRIRNRPPRLPRPRPRPEWLPRP | 0.226
127 | RRIRLRPPRLPRPRPRPTKLPRP | -0.0137
128 | RRIRLRPPRLPRPRPRPGSTPRP | -0.381
129 | RRIRIRPPRLPRPRPRPCCKPRP | -0.398
130 | RRIRHRPPRLPRPRPRPVGWPRP | 0.535
131 | RRIRTRPPRLPRPRPRPYVCPRP | -0.215
132 | RRIRKRPPRLPRPRPRPDKIPRP | 0.0555
133 | RRIRARPPRLPRPRPRPMKRPRP | 0.223
134 | RRIRARPPRLPRPRPRPMGPPRP | 0.161
135 | RRIRCRPPRLPRPRPRPKLLPRP | -0.172
136 | RRIRGRPPRLPRPRPRPVDTPRP | 0.678
137 | RRIRIRPPRLPRPRPRPHTIPRP | -0.572
138 | RRIRCRPPRLPRPRPRPKTIPRP | -0.141
139 | RRIRGRPPRLPRPRPRPFQRPRP | -0.0485
140 | RRIRRRPPRLPRPRPRPKFMPRP | 0.122
141 | RRIRRRPPRLPRPRPRPNQAPRP | 0.212
142 | RRIRRRPPRLPRPRPRPVISPRP | 0.104
143 | RRIRKRPPRLPRPRPRPWGRPRP | 0.179
144 | RRIRLRPPRLPRPRPRPLLGPRP | 0.0797
145 | RRIRIRPPRLPRPRPRPEEAPRP | 0.215
146 | RRIRFRPPRLPRPRPRPIQRPRP | -0.107
147 | RRIRERPPRLPRPRPRPQNHPRP | -0.519
148 | RRIRQRPPRLPRPRPRPWTCPRP | 0.0112
149 | RRIRSRPPRLPRPRPRPDHWPRP | -0.0678
150 | RRIRVRPPRLPRPRPRPAPWPRP | 0.395
